Measurements reported in paper PMC6568178 (Theranostics, 2019).

Tests used:
FOXM1 (endogenous) = biological target: T1, FOXM1 (endogenous) (human (endogenous in MDA-MB-231 and …, UniProt Q08050 1-763)); experiment: cell-based or functional assay
T1 sequence: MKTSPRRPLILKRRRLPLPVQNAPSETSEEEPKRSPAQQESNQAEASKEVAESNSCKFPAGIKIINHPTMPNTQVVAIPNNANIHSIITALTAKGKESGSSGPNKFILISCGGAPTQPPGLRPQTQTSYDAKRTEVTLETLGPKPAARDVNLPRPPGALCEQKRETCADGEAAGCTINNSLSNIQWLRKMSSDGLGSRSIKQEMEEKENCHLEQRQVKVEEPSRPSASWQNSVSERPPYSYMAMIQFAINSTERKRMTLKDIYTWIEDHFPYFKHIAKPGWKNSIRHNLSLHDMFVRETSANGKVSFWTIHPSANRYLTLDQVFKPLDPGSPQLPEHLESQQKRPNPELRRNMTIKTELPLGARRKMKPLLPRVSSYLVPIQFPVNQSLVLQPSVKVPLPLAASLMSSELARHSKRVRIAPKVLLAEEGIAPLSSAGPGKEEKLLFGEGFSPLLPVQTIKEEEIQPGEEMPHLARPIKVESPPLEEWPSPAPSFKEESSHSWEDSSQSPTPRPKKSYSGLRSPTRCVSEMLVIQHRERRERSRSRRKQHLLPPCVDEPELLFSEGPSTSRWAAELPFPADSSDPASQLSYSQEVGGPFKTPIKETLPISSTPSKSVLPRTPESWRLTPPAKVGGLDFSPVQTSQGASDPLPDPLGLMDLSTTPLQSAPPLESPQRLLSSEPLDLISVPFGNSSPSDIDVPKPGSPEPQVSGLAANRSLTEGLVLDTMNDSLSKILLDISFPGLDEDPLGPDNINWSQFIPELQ

FOXM1 full-length = biological target: T2, FOXM1 full-length (UniProt Q08050-2 1-748); experiment: EMSA
T2 sequence: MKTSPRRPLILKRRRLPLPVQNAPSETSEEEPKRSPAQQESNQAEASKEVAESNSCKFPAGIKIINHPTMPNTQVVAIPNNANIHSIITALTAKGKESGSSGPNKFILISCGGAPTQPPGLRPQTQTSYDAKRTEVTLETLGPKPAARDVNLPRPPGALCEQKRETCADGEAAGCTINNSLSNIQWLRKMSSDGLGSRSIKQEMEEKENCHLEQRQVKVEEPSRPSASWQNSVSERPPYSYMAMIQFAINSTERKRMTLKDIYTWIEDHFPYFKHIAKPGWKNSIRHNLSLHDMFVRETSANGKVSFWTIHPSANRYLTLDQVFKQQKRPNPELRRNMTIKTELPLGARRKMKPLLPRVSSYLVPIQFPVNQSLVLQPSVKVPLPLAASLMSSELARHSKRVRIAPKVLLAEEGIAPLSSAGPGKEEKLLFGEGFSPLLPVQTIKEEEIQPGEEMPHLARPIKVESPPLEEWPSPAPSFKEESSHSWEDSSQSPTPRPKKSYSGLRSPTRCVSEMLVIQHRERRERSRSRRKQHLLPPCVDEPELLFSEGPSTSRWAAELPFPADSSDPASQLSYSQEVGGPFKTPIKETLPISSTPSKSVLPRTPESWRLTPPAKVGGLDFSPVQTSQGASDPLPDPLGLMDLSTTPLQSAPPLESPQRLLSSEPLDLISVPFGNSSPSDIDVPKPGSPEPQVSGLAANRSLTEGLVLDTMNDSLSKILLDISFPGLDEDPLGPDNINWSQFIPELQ

[1] = biological target: T3, FOXM1 full-length;M1-138 (6xHis-FOXM1(1-138)-R9) (human?;human?, UniProt Q08050-2;Q08050-2 1-748;1-138, |); experiment: EMSA
T3 sequence 1: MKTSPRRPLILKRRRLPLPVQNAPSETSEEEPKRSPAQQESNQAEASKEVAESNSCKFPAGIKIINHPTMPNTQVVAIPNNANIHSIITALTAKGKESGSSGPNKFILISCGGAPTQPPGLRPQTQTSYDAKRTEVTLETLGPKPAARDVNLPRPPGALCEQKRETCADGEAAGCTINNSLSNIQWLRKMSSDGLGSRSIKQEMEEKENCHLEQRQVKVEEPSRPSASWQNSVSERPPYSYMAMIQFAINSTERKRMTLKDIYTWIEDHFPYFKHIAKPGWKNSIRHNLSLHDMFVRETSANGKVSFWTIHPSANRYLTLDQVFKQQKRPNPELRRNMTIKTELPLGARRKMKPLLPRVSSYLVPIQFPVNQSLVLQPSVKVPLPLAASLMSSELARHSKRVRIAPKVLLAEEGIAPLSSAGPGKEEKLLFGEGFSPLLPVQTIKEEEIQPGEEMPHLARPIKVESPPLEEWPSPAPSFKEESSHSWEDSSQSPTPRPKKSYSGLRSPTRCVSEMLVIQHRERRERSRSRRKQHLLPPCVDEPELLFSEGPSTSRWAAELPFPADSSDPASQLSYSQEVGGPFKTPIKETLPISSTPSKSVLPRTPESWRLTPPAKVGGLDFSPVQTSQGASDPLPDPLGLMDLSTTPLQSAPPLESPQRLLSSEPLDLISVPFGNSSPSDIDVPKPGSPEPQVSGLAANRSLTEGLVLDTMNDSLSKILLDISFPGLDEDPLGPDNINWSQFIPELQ
T3 sequence 2: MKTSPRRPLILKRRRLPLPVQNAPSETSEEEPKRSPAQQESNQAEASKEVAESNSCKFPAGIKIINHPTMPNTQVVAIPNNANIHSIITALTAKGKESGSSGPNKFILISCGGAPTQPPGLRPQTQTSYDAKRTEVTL

B1: M1-138 (recombinant FOXM1 N-terminal domain (1-138aa) fused with a nine arginine cell-penetrating peptide) (domain or fragment)
chain: MKTSPRRPLILKRRRLPLPVQNAPSETSEEEPKRSPAQQESNQAEASKEVAESNSCKFPAGIKIINHPTMPNTQVVAIPNNANIHSIITALTAKGKESGSSGPNKFILISCGGAPTQPPGLRPQTQTSYDAKRTEVTLRRRRRRRRR
With B1 the “IC50 of cell viability (CCK-8), A549 cells, 12 h treatment” value (FOXM1 (endogenous)) was 5.3 µM, the “IC50 of cell viability (CCK-8), Hela cells, 12 h treatment” value (FOXM1 (endogenous)) was 8.9 µM and the “IC50 of cell viability (CCK-8), HepG2 cells, 12 h treatment” value (FOXM1 (endogenous)) was 13.8 µM. For the same binder, the “IC50 of cell viability (CCK-8), MCF-7 cells, 12 h treatment” value (FOXM1 (endogenous)) was 17.9 µM and the “IC50 of cell viability (CCK-8), MDA-MB-231 cells, 12 h treatment” value (FOXM1 (endogenous)) was 7.8 µM.

B2: FAM-labeled FOXM1 dsDNA probe (Hot) (dsDNA)
DNA 1: TTTGTTTATTTGTTTGTTTATTTG
DNA 2: CAAATAAACAAACAAATAAACAAA
B2: binds (FOXM1 full-length); binds [1].
